# According to the supplement of paper PMC9170038:
# Tests used:
# [1] = tested on: K4 kissing-loop RNA reporter; test: apparent KD of K4 kissing-loop reporter; higher = weaker reporter binding; conditions: Eterna round: R107;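 also: bound reporter read as fluorescence of individual clusters on recovered sequencing chips by microscopy, with normalized cluster intensities fitted with a binding model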
# Description: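 RNA-MaP round R107: designed RNA switches with theophylline, tryptophan, arginine or FMN aptamers are transcribed on-chip within common flanks. They are titrated with a labelled K4 kissing-loop RNA reporter in RNA-MaP buffer (100 mM Tris pH 7.5, 80 mM KCl, 4 mM MgCl2), without ligand or with the indicated ligand. Median apparent KD per design.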
# [2] = tested on: MS2 coat protein; test: apparent KD of MS2 coat protein; designed switch direction (-1 OFF switch, 1 ON switch): -1; higher = weaker reporter binding; conditions: Eterna round: R95
# Summary of the method: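 RNA switches sharing common flanks were transcribed by stalled E. coli RNA polymerase on Illumina chips. A doubling series of SNAP-549-labelled MS2 coat protein, from 0.7 or 1.5 nM to 3 µM, was applied in Tris-HCl pH 7.5 buffer with KCl, MgCl2, BSA, DTT, tRNA and Tween-20. Each step lasted 0.8–1.5 h at the bottom of the series and 10–20 min at the top. Normalised cluster fluorescence was curve-fitted, giving apparent KD as the per-design median over clusters.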
# [3] = input ligand: theophylline 20 uM
# [4] = input ligand: tryptophan 2.4 mM
Sequence,apparent KD of K4 kissing-loop reporter ([1]; input ligand: FMN 200 uM) [nM],apparent KD of K4 kissing-loop reporter ([1]; input ligand: arginine 13.2 mM) [nM],apparent KD of K4 kissing-loop reporter ([1]; input ligand: none) [nM],"apparent KD of K4 kissing-loop reporter [1, 3] [nM]","apparent KD of K4 kissing-loop reporter [1, 4] [nM]",apparent KD of MS2 coat protein ([2]; input ligand: FMN 200 uM) [nM],"apparent KD of MS2 coat protein ([2]; input ligand: microRNA oligo, concentration not stated) [nM]",apparent KD of MS2 coat protein ([2]; input ligand: none) [nM]
CUGGGUUGACGAAAAGUCAACAAAUGAGAAGGAGCGCACGAAAGUGCAGGUAGGUCGCUCAAUCCAGUGAUGUUGGGUCAUCCAG [#SwitchBubble 13 #K4Late],856,612,993,951,731,,,
UGAUAGGACAGAAGGAGCGGCAGUGAUGUUGCCAAAAGGGUAAGGUGUCAAAAGACACCCUGCCAGGUAGGUCGCUGUCCUAUCU,166,173,162,163,134,,,
UUGAGCCUGACGCAAGUCAGGCUCUGCGAGCGAGGACCGGUACGGCCGCCACUCGGUGCAGUGAUGUUGCAUGGCCGCAAGGCCG [#2 Exclusion - Tryptophan A Attempt #17 (HarryS)],316,299,318,394,441,,,
GUGCAGUGAUGUUGCACGAGGAAAGACGAUACCAGCCGUAAAUAAGGCCCUUGGCAGCGUGGACUAGCAUAAAGUAUGCUAGCCU [Isenaonle],118,104,123,116,96.5,,,
UGCGCUGUGUACUGAAAUGUUCUGCGGGAUACCAGAGUCUUUUUAUUCCCUUGGCAGCUUGAGUGAUGUUUGAUGCCGUUCUUGU [tffeymullin],494,279,513,521,435,,,
GGAGUUACCUGGGAUACCAGUCGGAGUCUCAGAGCACGGAGUGAUGUUCUGGGAUGUUUCGGCCCUUGGCAGCUCUGGGACUCCA [#2 Exclusion - Theophylline B Attempt #15 (HarryS)],317,209,268,219,228,,,
AUGGUAUUGCGAGGAUAUCCUUCAAAUGUGACACUAACGGCAGUGAUGUUGCCGGCGUCUUUUUGAGGAGAAGGCGCGGUGUUAU [Exclusion FMN B GF 24],114,112,129,114,114,,,
ACUGGGUUGACGAAAGUCAACAAAUGAGAAGGAGCGCACGAAAGUGCAGGUAGGUCGCUCAUUCCAGUGAUGUUGGAUCACCAGA [#SwitchBubble 19 #K4Late],531,456,836,831,464,,,
UAGUAGCUCUCGGCCGCCACUCCUCAGUGAUGUUGAGAUAUUAAGAGCCAAUUGGCUCAUAUAAAGAGGACCGGGAGAGCUACAU [AK4.2 SS Tryptophan B],355,339,365,350,126,,,
UGUGGAGGAUAUGAUACCAGCAGUGAGAGAGAGGAAGUAUAGUGAUGUUAUAUGAGAGAAUGCCCUUGGCAGCGUAUGUAGUAGG [SSTheophylB.I],270,210,218,208,191,,,
"GAUUACUGCAAGCUUUGGAACAUGAGGAUCACCCAUGUUCGUCUUAUUGAUCUAGGUACGCUGACGUACCUAGAUCU [JL-sv1-2.30 Brourd mod] (puzzle: Sensor v3, turn-off variant 1)",,,,,,15.5,16.2,13.6
